Measured values taken from patent US20140212458A1.
“And” between values parts separate entries of the source, which are not always exact repeats. Equal entries are not always repeated.

Tests used:
[1] = target: BG505 SOSIP.664-D7324 gp140 trimer (HIV-1 BG505 (clade A)); assay: D7324-capture ELISA (panel B)
[2] = target: BG505 SOSIP.664-D7324 gp140 trimer (HIV-1 BG505 (clade A)); assay: D7324-capture ELISA, average of 2-6 titrations
[3] = target: BG505 SOSIP.664-D7324 gp140 trimer (HIV-1 BG505 (clade A)); assay: D7324-capture ELISA (panel D)
[4] = target: BG505 gp120-D7324 monomer (HIV-1 BG505 (clade A)); assay: D7324-capture ELISA (panel A)
[5] = target: BG505 SOSIP.664-His gp140 trimer (HIV-1 BG505 (clade A)); assay: SPR, trimer on NTA chip, IgG 1,000 nM
[6] = target: BG505 SOSIP.664-His gp140 trimer (HIV-1 BG505 (clade A)); assay: Ni-NTA-capture ELISA (panel C)
[7] = target: BG505 SOSIP.664 gp140 trimer (HIV-1 BG505 (clade A)); assay: ITC, two-site model
[8] = target: BG505 SOSIP.664 gp140 trimer (HIV-1 BG505 (clade A)); assay: ITC, antibody titrated into trimer
[9] = target: BG505 SOSIP.664-D7324 gp140 trimer (HIV-1 BG505 (clade A)); assay: D7324-capture ELISA (panel A)
[10] = target: BG505 SOSIP.664 gp140 trimer (HIV-1 BG505 (clade A)); assay: negative stain EM (not shown)
[11] = target: JR-FL gp120 core with mini V3 (HIV-1 JR-FL); assay: ITC
[12] = target: BG505 gp41ECTO-His (HIV-1 BG505 (clade A)); assay: Ni-NTA-capture ELISA (panel C)
[13] = target: BG505 SOSIP.664 gp140 trimer (HIV-1 BG505 (clade A)); assay: negative stain EM
[14] = target: BG505 SOSIP.664 gp140 trimer (HIV-1 BG505 (clade A)); assay: negative stain EM, 2D class averages; Fab 600 nM, trimer 40 nM
[15] = target: BG505 SOSIP.664 gp140 trimer (HIV-1 BG505 (clade A)); assay: negative stain EM, 2D class averages; Fab 240 nM, trimer 14 nM
[16] = target: BG505 SOSIP.664 gp140 trimer (HIV-1 BG505 (clade A)); assay: negative stain EM, 2D class averages; Fab 860 nM, trimer 48 nM
[17] = target: recombinant HIV-1 envelope glycoprotein gp120 BG505 clade A (HIV-1 BG505 (clade A)); assay: ELISA on BG505 gp120
[18] = target: BG505 gp120 monomer (HIV-1 BG505 (clade A)); assay: ITC, Fab titrated into Env, 25 C
[19] = target: BG505 SOSIP.664 gp140 trimer (HIV-1 BG505 (clade A)); assay: ITC, Fab titrated into Env, 25 C
[20] = target: BG505 SOSIP.664 gp140 trimer (HIV-1 BG505 (clade A)); assay: ITC, Fab titrated into trimer; footnote f: data previously described elsewhere (Julien 2013, the applicants' own PG9:trimer study, also an example of this filing)
[21] = target: BG505 SOSIP.664 gp140 trimer (HIV-1 BG505 (clade A)); assay: SDS-PAGE of SEC fractions, ImageJ
[22] = target: BG505 SOSIP.664 gp140 trimer (HIV-1 BG505 (clade A)); assay: ITC
[23] = target: BG505 gp120 monomer (HIV-1 BG505 (clade A)); assay: ITC
[24] = target: BG505 SOSIP.664 gp140 trimer (HIV-1 BG505 (clade A)); assay: ITC; remark: listed apart in the source
[25] = target: BG505 gp120-D7324 monomer in the presence of sCD4 (HIV-1 BG505 (clade A)); assay: D7324-capture ELISA with sCD4 (panel B)
[26] = target: BG505 SOSIP.664 gp140 trimer (HIV-1 BG505 (clade A)); assay: negative stain EM, 2D class averages; Fab 480 nM, trimer 44 nM

Substance: 3BNC117 (antibody)
- EC50 (read off the curve) [1]: 0.1 µg/mL
- EC50 [2]: 0.102 µg/mL

Substance: PGV04 (antibody)
- EC50 [2]: 0.227 µg/mL

Substance: 8ANC195 (antibody)
- EC50 [2]: 2.06 µg/mL

Substance: VRC06b (antibody)
- EC50 (read off the curve) [1]: 0.4 µg/mL
- EC50 [2]: 0.345 µg/mL

Substance: PGT130 (antibody)
- EC50 [2]: 0.524 µg/mL

Substance: PGT136 (antibody)
- EC50 [2]: 0.434 µg/mL

Substance: PGT145 (antibody)
- EC50 (read off the curve) [3]: 0.06 µg/mL
- EC50 [2]: 0.114 µg/mL

Substance: 3BNC60 (antibody)
- EC50 (read off the curve) [1]: 0.03 µg/mL
- EC50 [2]: 0.095 µg/mL

Substance: b6 (antibody)
- EC50 (read off the curve) [4]: 0.09 µg/mL
- plateau response (RU) [5]: 30 RU
- EC50 [2]: 0.871 µg/mL

Substance: F105 (antibody)
- EC50 [2]: > 10 µg/mL

Substance: 3BC315 (antibody)
- EC50 [2]: 0.962 µg/mL

Substance: VRC01 (antibody)
- EC50 (read off the curve) [6]: 0.03 µg/mL
- EC50 [2]: 0.163 µg/mL

Substance: 1NC9 (antibody)
- EC50 [2]: 0.735 µg/mL

Substance: 3BC176 (antibody)
- EC50 [2]: 5.65 µg/mL

Substance: PGT135 (antibody)
- EC50 [2]: 0.521 µg/mL

Substance: HJ16 (antibody)
- EC50 [2]: 4.38 µg/mL

Substance: PGT128 Fab
- Kd2 (second, low affinity binding event) [7]: 20 µM
- -TΔS [8]: 11.6 kcal/mol
- Kd [8]: 5.7 nM and 0.285 µg/mL
- N (stoichiometry of binding) [8]: 2.3
- ΔG [8]: -11.2 kcal/mol
- ΔH [8]: -22.8 kcal/mol

Substance: VRC06 (antibody)
- EC50 [2]: 1.1 µg/mL

Substance: X5 (antibody)
- EC50 [2]: > 10 µg/mL

Substance: 2G12 (antibody)
- Kd2 (second, low affinity binding event) [7]: 12.3 µM
- -TΔS [8]: 28.4 kcal/mol
- Kd [8]: 16 nM and 2.4 µg/mL
- N (stoichiometry of binding) [8]: 2.4
- ΔG [8]: -10.6 kcal/mol
- ΔH [8]: -39 kcal/mol
- EC50 (read off the curve) [9]: 0.02 µg/mL
- EC50 (read off the curve) [4]: 0.01 µg/mL
- EC50 [2]: 0.027 µg/mL

Substance: CD4-IgG2 (Fc fusion)
- EC50 [2]: 0.155 µg/mL

Substance: PGT135 Fab
- % of images with no Fabs bound [10]: < 3%
- % of images with three Fabs bound [10]: > 50%
- Kd [11]: 82 nM

Substance: F240 (antibody)
- EC50 (read off the curve) [12]: 0.01 µg/mL
- EC50 [2]: > 10 µg/mL

Substance: PGT121 Fab
- -TΔS [8]: 20.6 kcal/mol
- Kd [8]: 151 nM and 7.55 µg/mL
- N (stoichiometry of binding) [8]: 2.4
- ΔG [8]: -9.3 kcal/mol
- ΔH [8]: -29.9 kcal/mol

Substance: PGT123 (antibody)
- EC50 [2]: 0.127 µg/mL

Substance: 45-46 (antibody)
- EC50 [2]: 0.127 µg/mL

Substance: CH01 (antibody)
- EC50 [2]: 2.78 µg/mL

Substance: 19b Fab
- % of trimers occupied by one, two or three Fabs [13]: 39%
- % 1 Fab bound [14]: 30%
- % 2 Fabs bound [14]: 8%
- % 3 Fabs bound [14]: 1%
- % trimer alone [14]: 61%
- particles, 1 Fab bound [14]: 12500 particles
- particles, 2 Fabs bound [14]: 3050 particles
- particles, 3 Fabs bound [14]: 211 particles
- particles, trimer alone [14]: 25100 particles

Substance: 14e Fab
- % 1 Fab bound [15]: 17%
- % 2 Fabs bound [15]: 2%
- % 3 Fabs bound [15]: 0%
- % trimer alone [15]: 81%
- particles, 1 Fab bound [15]: 4440 particles
- particles, 2 Fabs bound [15]: 610 particles
- particles, 3 Fabs bound [15]: 0 particles
- particles, trimer alone [15]: 21900 particles

Substance: 12A12 (antibody)
- EC50 [2]: 0.08 µg/mL

Substance: PGV04 Fab
- % of images with no Fabs bound [10]: < 3%
- % of images with three Fabs bound [10]: > 50%

Substance: PGT121 (antibody)
- EC50 (read off the curve) [1]: 0.09 µg/mL
- EC50 [2]: 0.095 µg/mL

Substance: PGT125 (antibody)
- EC50 (read off the curve) [1]: 0.04 µg/mL
- EC50 [2]: 0.047 µg/mL

Substance: CH103 (antibody)
- EC50 [2]: 0.792 µg/mL

Substance: F240 Fab
- % 1 Fab bound [16]: 2%
- % 2 Fabs bound [16]: 0%
- % 3 Fabs bound [16]: 0%
- % trimer alone [16]: 98%
- particles, 1 Fab bound [16]: 154 particles
- particles, 2 Fabs bound [16]: 0 particles
- particles, 3 Fabs bound [16]: 0 particles
- particles, trimer alone [16]: 6260 particles

Substance: PGT122 (antibody)
- EC50 [2]: 0.159 µg/mL

Substance: 7B2 (antibody)
- EC50 [2]: > 10 µg/mL

Substance: PG16 (antibody)
- EC50 (read off the curve) [3]: 0.1 µg/mL
- EC50 (read off the curve) [17]: 0.2 µg/mL
- EC50 [2]: 0.199 µg/mL

Substance: PG9 Fab
- -TΔS [18]: 17.2 kcal/mol
- Kd [18]: 31 nM
- N (stoichiometry of binding) [18]: 0.4
- ΔG [18]: -10.2 kcal/mol
- ΔH [18]: -27.4 kcal/mol
- ΔG [19]: -10.1 kcal/mol
- ΔH [19]: -20.6 kcal/mol
- -TΔS [20]: 7.8 kcal/mol
- Kd [20]: 11 nM and 0.55 µg/mL
- N (stoichiometry of binding) [20]: 0.8
- ΔG [20]: -10.9 kcal/mol
- ΔH [20]: -18.7 kcal/mol
- gp140 protomers per PG9 Fab [21]: 3
- Kd [22]: 30 nM
- Kd [23]: 20 to 30 nM
- Kd [24]: 20 to 30 nM

Substance: PGT126 (antibody)
- EC50 (read off the curve) [1]: 0.03 µg/mL
- EC50 [2]: 0.026 µg/mL

Substance: A32 (antibody)
- EC50 (read off the curve) [25]: 0.04 µg/mL
- EC50 [2]: > 10 µg/mL

Substance: PGT122 Fab
- % of images with no Fabs bound [10]: < 3%
- % of images with three Fabs bound [10]: > 50%

Substance: CH31 (antibody)
- EC50 [2]: 0.347 µg/mL

Substance: PGT128 (antibody)
- EC50 (read off the curve) [1]: 0.04 µg/mL
- EC50 (read off the curve) [9]: 0.04 µg/mL
- EC50 (read off the curve) [4]: 0.04 µg/mL
- plateau response (RU) [5]: 750 RU
- EC50 [2]: 0.058 µg/mL

Substance: b12 (antibody)
- EC50 (read off the curve) [17]: 0.03 µg/mL
- EC50 [2]: > 10 µg/mL

Substance: CH106 (antibody)
- EC50 [2]: 2.57 µg/mL

Substance: F91 (antibody)
- EC50 [2]: > 10 µg/mL

Substance: PG9 (antibody)
- EC50 (read off the curve) [3]: 0.4 µg/mL
- EC50 (read off the curve) [17]: 0.04 µg/mL
- EC50 [2]: 0.343 µg/mL

Substance: PGT127 (antibody)
- EC50 [2]: 0.066 µg/mL

Substance: b6 Fab
- % 1 Fab bound [26]: 6%
- % 2 Fabs bound [26]: 0%
- % 3 Fabs bound [26]: 0%
- % trimer alone [26]: 94%
- particles, 1 Fab bound [26]: 354 particles
- particles, 2 Fabs bound [26]: 0 particles
- particles, 3 Fabs bound [26]: 0 particles
- particles, trimer alone [26]: 5610 particles

Substance: PGT127 Fab
- Kd [22]: 70 nM
- N (stoichiometry of binding) [24]: < 3

Substance: VRC03 (antibody)
- EC50 (read off the curve) [1]: 0.6 µg/mL
- EC50 [2]: 0.647 µg/mL
